Test results published in the supplement of paper PMC10065799, “High-throughput profiling of sequence recognition by tyrosine kinases and SH2 domains using bacterial peptide display” (eLife, 2023).

Target: FGFR3 (UniProt P22607)
Assay: phosphorylation enrichment, bacterial display (enrichment ratio); higher = better substrate or ligand; peptides without Tyr show the background
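Further: 11-residue human phosphosite peptides and single-mutation variants displayed on the E. coli surface, counted by deep sequencing, each peptide's frequency after selection divided by its frequency in the unselected input library; frequency after pTyr selection over input frequency; kinase dosed for 20-30% of maximal phosphorylation in three min.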

FGFR3, sequence (P22607 whole entry, looked up): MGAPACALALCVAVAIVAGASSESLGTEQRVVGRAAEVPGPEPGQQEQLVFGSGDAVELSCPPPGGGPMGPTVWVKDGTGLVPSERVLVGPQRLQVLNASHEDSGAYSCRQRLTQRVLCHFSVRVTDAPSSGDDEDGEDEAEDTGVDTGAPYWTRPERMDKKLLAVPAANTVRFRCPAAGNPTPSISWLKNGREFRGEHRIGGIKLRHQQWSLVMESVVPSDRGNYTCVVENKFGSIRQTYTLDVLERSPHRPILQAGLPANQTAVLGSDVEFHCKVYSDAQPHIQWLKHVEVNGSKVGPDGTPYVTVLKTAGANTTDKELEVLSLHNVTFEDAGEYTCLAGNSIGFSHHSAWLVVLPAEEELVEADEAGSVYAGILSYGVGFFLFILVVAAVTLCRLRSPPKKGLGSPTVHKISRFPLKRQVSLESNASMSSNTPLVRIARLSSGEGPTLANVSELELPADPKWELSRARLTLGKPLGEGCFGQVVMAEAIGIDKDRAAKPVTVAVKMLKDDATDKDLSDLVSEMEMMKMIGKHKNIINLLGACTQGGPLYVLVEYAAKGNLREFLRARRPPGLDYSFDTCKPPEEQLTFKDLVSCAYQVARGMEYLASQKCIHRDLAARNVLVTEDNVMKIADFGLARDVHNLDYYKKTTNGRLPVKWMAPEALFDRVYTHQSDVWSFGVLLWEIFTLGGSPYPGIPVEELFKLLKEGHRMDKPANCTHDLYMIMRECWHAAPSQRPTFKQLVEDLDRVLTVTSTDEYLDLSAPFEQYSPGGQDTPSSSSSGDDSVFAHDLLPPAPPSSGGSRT

Row | Sequence | phosphorylation enrichment
1 | KVNKIYFPDFI [LIG3_Y767_YF] | 1.26
2 | LLILEYAKYGS [RET_Y806_V804L] | 0.869
3 | AAVDTVCRHNY [HLA-DRB1_Y107_Y107V] | 0.673
4 | SSYSGYIMMPN [LEF1_Y114] | 2.38
5 | LYNQDYPIHCV [GATM_Y227_S231C] | 1.64
6 | SYCYRYRCAAW [SUMF1_Y344_R349W] | 0.508
7 | LRRREYQRQDF [PRKRIP1_Y90_YF] | 0.561
8 | PSQRHYVYYYS [PTEN_Y174_R173H] | 6.63
9 | IETGKYEILTE | 0.78
10 | RFLRGYRQDAY [HLA-A_Y137] | 0.664
11 | VNFDYYTVNLG [GFPT1_Y367_D366Y] | 14.5
12 | LTMAPYSSVSV [FAM81A_Y24_L29V] | 0.899
13 | LTYHMYADPNF [SOS1_Y618] | 3.01
14 | SFSGEYGGGGG [ZG16_Y30_YF] | 0.35
15 | SDVCMYRKNTY [SYNE2_Y570_I574T] | 0.695
16 | VIKDKYPKARY [APTX_Y209] | 0.551
17 | FKGKKYKPLDL [RPL35_Y78_YF] | 0.413

Row | Sequence | phosphorylation enrichment
18 | CTTIHYNYMWN [TP53_Y234_C238W] | 0.976
19 | VTAALYGCLFE [BTD_Y536_R538C_YF] | 0.998
20 | KLIMECLPFGS [JAK2_Y931_Y931C_YF] | 0.858
21 | IMNLLYHVVGW [GBA_Y412_T408M] | 5.38
22 | GRIHSYRGHLW [VHL_Y112_R107G] | 0.438
23 | PLFRKYWPNHI [GREB1L_Y1560_YF] | 0.565
24 | QMVGMYASFFM [AVPR2_Y124_S127F_YF] | 1.5
25 | ANAFIYVVQLP [L1CAM_Y420_YF] | 0.855
26 | YGSGNYNVFGN [HNRNPA2B1_Y300_D302V] | 0.63
27 | FGPPQYNIQFS [ERBB2IP_Y977_YF] | 0.508
28 | SPPPAYTPMSG [ERBB4_Y1056] | 0.457
29 | FDAHIYEGCVI [PRKCD_Y64_R67C] | 0.831
30 | SGIYQYNIAKF [FOXL2_Y83_I84N] | 0.605
31 | TGQERYRAITS [RAB11B_Y73_A68T] | 0.392
32 | TRSYDYTEGGD [FGF7_Y58_M59T] | 0.59
33 | LVMFIYVIFGM [SCN1A_Y1684_A1685V] | 0.604

System: Fer (mouse)
Assay: as above

Row | Sequence | phosphorylation enrichment
34 | KVNKIYFPDFI [LIG3_Y767_YF] | 0.4
35 | LLILEYAKYGS [RET_Y806_V804L] | 0.58
36 | AAVDTVCRHNY [HLA-DRB1_Y107_Y107V] | 0.417
37 | SSYSGYIMMPN [LEF1_Y114] | 0.604
38 | LYNQDYPIHCV [GATM_Y227_S231C] | 0.632
39 | SYCYRYRCAAW [SUMF1_Y344_R349W] | 0.404
40 | LRRREYQRQDF [PRKRIP1_Y90_YF] | 0.563
41 | PSQRHYVYYYS [PTEN_Y174_R173H] | 1.65
42 | IETGKYEILTE | 0.703
43 | RFLRGYRQDAY [HLA-A_Y137] | 0.483
44 | VNFDYYTVNLG [GFPT1_Y367_D366Y] | 6.01
45 | LTMAPYSSVSV [FAM81A_Y24_L29V] | 9.11
46 | LTYHMYADPNF [SOS1_Y618] | 1.09
47 | SFSGEYGGGGG [ZG16_Y30_YF] | 0.413
48 | SDVCMYRKNTY [SYNE2_Y570_I574T] | 0.401
49 | VIKDKYPKARY [APTX_Y209] | 0.426
50 | FKGKKYKPLDL [RPL35_Y78_YF] | 0.481

Row | Sequence | phosphorylation enrichment
51 | CTTIHYNYMWN [TP53_Y234_C238W] | 1.77
52 | VTAALYGCLFE [BTD_Y536_R538C_YF] | 1.1
53 | KLIMECLPFGS [JAK2_Y931_Y931C_YF] | 0.622
54 | IMNLLYHVVGW [GBA_Y412_T408M] | 2.16
55 | GRIHSYRGHLW [VHL_Y112_R107G] | 0.373
56 | PLFRKYWPNHI [GREB1L_Y1560_YF] | 0.482
57 | QMVGMYASFFM [AVPR2_Y124_S127F_YF] | 5.31
58 | ANAFIYVVQLP [L1CAM_Y420_YF] | 0.559
59 | YGSGNYNVFGN [HNRNPA2B1_Y300_D302V] | 0.561
60 | FGPPQYNIQFS [ERBB2IP_Y977_YF] | 0.342
61 | SPPPAYTPMSG [ERBB4_Y1056] | 0.379
62 | FDAHIYEGCVI [PRKCD_Y64_R67C] | 10.5
63 | SGIYQYNIAKF [FOXL2_Y83_I84N] | 14.7
64 | TGQERYRAITS [RAB11B_Y73_A68T] | 0.346
65 | TRSYDYTEGGD [FGF7_Y58_M59T] | 0.414
66 | LVMFIYVIFGM [SCN1A_Y1684_A1685V] | 0.366

Target: Fes (UniProt P07332)
Assay: as above

Fes, sequence (P07332 whole entry, looked up): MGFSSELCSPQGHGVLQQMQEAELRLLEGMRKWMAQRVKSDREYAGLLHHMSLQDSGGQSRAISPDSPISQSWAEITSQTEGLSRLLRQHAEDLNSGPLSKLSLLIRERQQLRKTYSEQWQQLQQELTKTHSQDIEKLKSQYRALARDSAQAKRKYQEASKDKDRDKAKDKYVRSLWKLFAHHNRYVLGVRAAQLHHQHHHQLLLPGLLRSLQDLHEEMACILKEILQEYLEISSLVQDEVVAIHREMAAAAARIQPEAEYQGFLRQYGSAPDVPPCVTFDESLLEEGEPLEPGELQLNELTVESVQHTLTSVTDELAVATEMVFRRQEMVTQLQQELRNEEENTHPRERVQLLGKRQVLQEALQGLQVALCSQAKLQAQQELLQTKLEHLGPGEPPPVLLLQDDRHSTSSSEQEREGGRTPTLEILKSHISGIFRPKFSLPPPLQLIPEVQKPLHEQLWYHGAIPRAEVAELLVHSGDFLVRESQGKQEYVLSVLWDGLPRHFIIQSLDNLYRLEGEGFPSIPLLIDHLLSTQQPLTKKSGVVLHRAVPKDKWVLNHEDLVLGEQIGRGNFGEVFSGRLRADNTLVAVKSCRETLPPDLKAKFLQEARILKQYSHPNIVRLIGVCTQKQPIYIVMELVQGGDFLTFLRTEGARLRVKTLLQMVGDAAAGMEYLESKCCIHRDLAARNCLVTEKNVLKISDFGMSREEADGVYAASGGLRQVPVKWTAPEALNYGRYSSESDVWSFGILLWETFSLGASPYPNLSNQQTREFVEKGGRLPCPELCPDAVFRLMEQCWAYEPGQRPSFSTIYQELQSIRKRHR

Row | Sequence | phosphorylation enrichment
67 | KVNKIYFPDFI [LIG3_Y767_YF] | 0.855
68 | LLILEYAKYGS [RET_Y806_V804L] | 1.27
69 | AAVDTVCRHNY [HLA-DRB1_Y107_Y107V] | 0.842
70 | SSYSGYIMMPN [LEF1_Y114] | 0.718
71 | LYNQDYPIHCV [GATM_Y227_S231C] | 0.954
72 | SYCYRYRCAAW [SUMF1_Y344_R349W] | 0.785
73 | LRRREYQRQDF [PRKRIP1_Y90_YF] | 0.679
74 | PSQRHYVYYYS [PTEN_Y174_R173H] | 1.63
75 | IETGKYEILTE | 1.34
76 | RFLRGYRQDAY [HLA-A_Y137] | 0.827
77 | VNFDYYTVNLG [GFPT1_Y367_D366Y] | 1.25
78 | LTMAPYSSVSV [FAM81A_Y24_L29V] | 1.08
79 | LTYHMYADPNF [SOS1_Y618] | 1.88
80 | SFSGEYGGGGG [ZG16_Y30_YF] | 0.571
81 | SDVCMYRKNTY [SYNE2_Y570_I574T] | 0.905
82 | VIKDKYPKARY [APTX_Y209] | 0.699
83 | FKGKKYKPLDL [RPL35_Y78_YF] | 0.571

Row | Sequence | phosphorylation enrichment
84 | CTTIHYNYMWN [TP53_Y234_C238W] | 1.32
85 | VTAALYGCLFE [BTD_Y536_R538C_YF] | 1.55
86 | KLIMECLPFGS [JAK2_Y931_Y931C_YF] | 1.39
87 | IMNLLYHVVGW [GBA_Y412_T408M] | 0.872
88 | GRIHSYRGHLW [VHL_Y112_R107G] | 0.712
89 | PLFRKYWPNHI [GREB1L_Y1560_YF] | 0.994
90 | QMVGMYASFFM [AVPR2_Y124_S127F_YF] | 2.03
91 | ANAFIYVVQLP [L1CAM_Y420_YF] | 1.32
92 | YGSGNYNVFGN [HNRNPA2B1_Y300_D302V] | 0.828
93 | FGPPQYNIQFS [ERBB2IP_Y977_YF] | 0.779
94 | SPPPAYTPMSG [ERBB4_Y1056] | 0.503
95 | FDAHIYEGCVI [PRKCD_Y64_R67C] | 1.44
96 | SGIYQYNIAKF [FOXL2_Y83_I84N] | 0.732
97 | TGQERYRAITS [RAB11B_Y73_A68T] | 0.588
98 | TRSYDYTEGGD [FGF7_Y58_M59T] | 0.976
99 | LVMFIYVIFGM [SCN1A_Y1684_A1685V] | 0.673

Target: Fyn (UniProt P06241)
Assay: as above

Fyn, sequence (P06241 whole entry, looked up): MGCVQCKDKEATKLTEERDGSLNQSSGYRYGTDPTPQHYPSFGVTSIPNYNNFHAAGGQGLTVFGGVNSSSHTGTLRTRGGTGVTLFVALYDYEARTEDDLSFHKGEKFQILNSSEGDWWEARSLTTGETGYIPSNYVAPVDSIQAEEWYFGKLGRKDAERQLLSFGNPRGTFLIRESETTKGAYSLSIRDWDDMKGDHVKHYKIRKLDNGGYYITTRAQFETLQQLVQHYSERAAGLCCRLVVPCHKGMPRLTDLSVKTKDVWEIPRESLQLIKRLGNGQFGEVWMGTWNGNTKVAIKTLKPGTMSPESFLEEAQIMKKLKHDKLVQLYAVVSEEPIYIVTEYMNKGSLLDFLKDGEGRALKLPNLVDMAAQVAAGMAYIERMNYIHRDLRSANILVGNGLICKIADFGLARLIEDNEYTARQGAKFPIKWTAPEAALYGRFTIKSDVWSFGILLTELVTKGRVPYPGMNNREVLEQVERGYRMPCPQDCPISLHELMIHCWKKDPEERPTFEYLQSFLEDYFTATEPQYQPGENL

Row | Sequence | phosphorylation enrichment
100 | KVNKIYFPDFI [LIG3_Y767_YF] | 0.455
101 | LLILEYAKYGS [RET_Y806_V804L] | 0.587
102 | AAVDTVCRHNY [HLA-DRB1_Y107_Y107V] | 0.494
103 | SSYSGYIMMPN [LEF1_Y114] | 0.571
104 | LYNQDYPIHCV [GATM_Y227_S231C] | 0.639
105 | SYCYRYRCAAW [SUMF1_Y344_R349W] | 0.395
106 | LRRREYQRQDF [PRKRIP1_Y90_YF] | 0.539
107 | PSQRHYVYYYS [PTEN_Y174_R173H] | 2.84
108 | IETGKYEILTE | 0.429
109 | RFLRGYRQDAY [HLA-A_Y137] | 0.647
110 | VNFDYYTVNLG [GFPT1_Y367_D366Y] | 5.83
111 | LTMAPYSSVSV [FAM81A_Y24_L29V] | 0.575
112 | LTYHMYADPNF [SOS1_Y618] | 6.26
113 | SFSGEYGGGGG [ZG16_Y30_YF] | 0.348
114 | SDVCMYRKNTY [SYNE2_Y570_I574T] | 0.405
115 | VIKDKYPKARY [APTX_Y209] | 0.256
116 | FKGKKYKPLDL [RPL35_Y78_YF] | 0.467

Row | Sequence | phosphorylation enrichment
117 | CTTIHYNYMWN [TP53_Y234_C238W] | 0.569
118 | VTAALYGCLFE [BTD_Y536_R538C_YF] | 5.63
119 | KLIMECLPFGS [JAK2_Y931_Y931C_YF] | 0.619
120 | IMNLLYHVVGW [GBA_Y412_T408M] | 4.49
121 | GRIHSYRGHLW [VHL_Y112_R107G] | 0.38
122 | PLFRKYWPNHI [GREB1L_Y1560_YF] | 0.698
123 | QMVGMYASFFM [AVPR2_Y124_S127F_YF] | 9.8
124 | ANAFIYVVQLP [L1CAM_Y420_YF] | 0.631
125 | YGSGNYNVFGN [HNRNPA2B1_Y300_D302V] | 0.76
126 | FGPPQYNIQFS [ERBB2IP_Y977_YF] | 0.364
127 | SPPPAYTPMSG [ERBB4_Y1056] | 0.483
128 | FDAHIYEGCVI [PRKCD_Y64_R67C] | 2.48
129 | SGIYQYNIAKF [FOXL2_Y83_I84N] | 3.42
130 | TGQERYRAITS [RAB11B_Y73_A68T] | 0.451
131 | TRSYDYTEGGD [FGF7_Y58_M59T] | 0.56
132 | LVMFIYVIFGM [SCN1A_Y1684_A1685V] | 0.517
